Assay results published in the supplement of paper PMC7877785.
± gives the uncertainty stated by the source.

Assay: self-splicing fitness, log relative to wild type (ln ratio); higher = more splicing; Tetrahymena group I intron in knt gene, E. coli kanamycin selection, DiMSum; sequences stand for … in CUCUCU…GGAGGGAAAAGUUAUCAGGCAUGCACCUGGUAGCUAGUCUUUAAACCAAUAGAUUGCAUCGGUUUAAAAGGCAAGACCGUCAAAUUGCGGGAAAGGGGUCAACAGCCGUUCAGUACCAAGUCUCAGGGGAAACUUUGAGAUGGCCUUGCAAAGGGUAUGGUAAUAAGCUGACGGACAUGGUCCUAACCACGCAGCCAAGUCCUAAGUCAACAGAUCUUCUGUUGAUAUGGAUGCAGUUCACAGACUAAAUGUCGGUCGGGGAAGAUGUAUUCUUCUCAUAAGAUAUAGUCGGACCUCUCCUUAAUGGGAGCUAGCGGAUGAAGUGAUGCAACACUGGAGCCGCUGGGAACUAAUUUGUAUGCGAAAGUAUAUUGAUUAGUUUUGGAGUACUCGUGGUCG
Summary of the method: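 Pooled colonies went to amplicon sequencing on an Illumina HiSeq 2500 after six replicate transformations. The plates were LB agar with 100 μg/mL carbenicillin, 50 μM IPTG and 0.2% rhamnose, with or without 25 μg/mL kanamycin, incubated overnight at 37°C or 30°C. The E. coli BL21(DE3) library had all eight P1ex-region intron nucleotides randomised, the intron placed in the knt kanamycin-resistance gene on pET-22b(+). DiMSum fitness is the error-weighted combination of replicate fold changes, kanamycin against none, normalised to wild type.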

Sequence	self-splicing fitness (ln) (30 °C)	self-splicing fitness (ln) (37 °C)
CAGAAGCAAUAUUACGAGUA	-3.2 ± 0.29	-1.66 ± 0.22
CCCGAGCAAUAUUACGCGCC		-1.22 ± 0.35
AUUAAGCAAUAUUACGAGUC	-3.25 ± 0.15	-3.29 ± 0.21
GGGCAGCAAUAUUACGGCCA	0.461 ± 0.14	0.258 ± 0.17
GGCUAGCAAUAUUACGGACA	-0.485 ± 0.091	-0.398 ± 0.098
UUAUAGCAAUAUUACGCGUC		-1.11 ± 0.41
GCCCAGCAAUAUUACGACUG	-4.23 ± 0.22	-2.44 ± 0.19
UAGGAGCAAUAUUACGAUUA	-0.679 ± 0.065	0.31 ± 0.094
UCGAAGCAAUAUUACGCUGA	-3.44 ± 0.33	-2.31 ± 0.29
GAACAGCAAUAUUACGGCGC	-0.147 ± 0.065	-0.195 ± 0.09
UGAAAGCAAUAUUACGCACC	-0.796 ± 0.2	-0.513 ± 0.26
UCAAAGCAAUAUUACGAACG	-0.696 ± 0.076	-0.646 ± 0.11
GAUGAGCAAUAUUACGCACC	-1.94 ± 0.44	-1.13 ± 0.31
ACCGAGCAAUAUUACGGUGU	-2.88 ± 0.13	-2.15 ± 0.12
AGCUAGCAAUAUUACGCUCA	-1.67 ± 0.25	-2.11 ± 0.37
AAAAAGCAAUAUUACGUACC	-0.981 ± 0.13	-0.0947 ± 0.14
CAAUAGCAAUAUUACGUCUU	-3.63 ± 0.14	-2.09 ± 0.13
CGGCAGCAAUAUUACGGUGG	-1.41 ± 0.09	-0.157 ± 0.082
GCGGAGCAAUAUUACGGUGU	-3.36 ± 0.23	-3.11 ± 0.35
AUGAAGCAAUAUUACGUAGC	-4.32 ± 0.42	-1.45 ± 0.27
CGGAAGCAAUAUUACGUCGG	-0.77 ± 0.064	0.0281 ± 0.099
CGUAAGCAAUAUUACGUGAA	-3.19 ± 0.14	-1.61 ± 0.15
CGCGAGCAAUAUUACGUCUA	-1.42 ± 0.17	-0.973 ± 0.26
CCGGAGCAAUAUUACGCUAA	-2.65 ± 0.26	-2.96 ± 0.35
CAGGAGCAAUAUUACGGAUA		-0.862 ± 0.41

Sequence	self-splicing fitness (ln) (30 °C)	self-splicing fitness (ln) (37 °C)
GGGAAGCAAUAUUACGGCAG	-2.64 ± 0.34	
UGGGAGCAAUAUUACGACAA	-2.75 ± 0.34	-0.982 ± 0.3
CUAGAGCAAUAUUACGAGAU	-3.54 ± 0.17	-1.67 ± 0.15
GCGUAGCAAUAUUACGCUGA		-3.19 ± 0.3
AAAGAGCAAUAUUACGCCAA	-1.26 ± 0.21	
AUCCAGCAAUAUUACGGAGC	-3.09 ± 0.21	-2.2 ± 0.24
CCCUAGCAAUAUUACGUGAU	-2.33 ± 0.076	-2.27 ± 0.14
GCAUAGCAAUAUUACGGGUG	-2.29 ± 0.13	-1.82 ± 0.12
GGGCAGCAAUAUUACGUGUU	-1.64 ± 0.072	-0.906 ± 0.08
ACGUAGCAAUAUUACGGUCG	-1.23 ± 0.093	-0.666 ± 0.12
GUUAAGCAAUAUUACGUGCA	-1.44 ± 0.1	-0.144 ± 0.11
GUACAGCAAUAUUACGAUGC	-1.03 ± 0.12	-1.06 ± 0.12
GUAAAGCAAUAUUACGGGCC	-1.92 ± 0.25	-1.05 ± 0.23
AUGAAGCAAUAUUACGUGUU	-1.64 ± 0.063	-1.64 ± 0.078
AAGCAGCAAUAUUACGUCAC	-4.94 ± 0.42	-2.25 ± 0.3
AUGAAGCAAUAUUACGCGUC	-4.16 ± 0.2	-1.48 ± 0.13
AGCUAGCAAUAUUACGCCAA	-1.7 ± 0.27	-1.75 ± 0.2
CUCCAGCAAUAUUACGCUUC	-3.31 ± 0.24	-2.27 ± 0.23
ACUAAGCAAUAUUACGUGCG	-0.891 ± 0.086	-0.294 ± 0.098
CGGUAGCAAUAUUACGCGGG	-2.49 ± 0.18	-1.88 ± 0.24
CAACAGCAAUAUUACGACCA	-1.66 ± 0.099	-0.585 ± 0.097
CGUGAGCAAUAUUACGCGGC	-2.91 ± 0.24	-3.19 ± 0.28
CGAGAGCAAUAUUACGACGU	-2.81 ± 0.22	-3.04 ± 0.43
CGGGAGCAAUAUUACGUACG	-2.98 ± 0.11	-1.53 ± 0.097
